Data from article PMC4251702.

Experiments:
[1] = target: P. falciparum F-actin, biotinylated (P. falciparum 3D7 (endogenous in merozoites)) (UniProt Q8I4X0); assay: BLI
[2] = target: P. falciparum G-actin, biotinylated (P. falciparum 3D7 (endogenous in merozoites)) (UniProt Q8I4X0); assay: BLI
[3] = target: rabbit muscle G-actin, biotinylated (rabbit) (UniProt P68135)

## Plasmodium falciparum aldolase (from UniProt P14223 1-369) (enzyme)
[1]
  Kd: 370 nM
[2]
  Kd: 470 nM

## RH1 cytoplasmic tail domain peptide (residues 2942-2971)
[3]
  initial rate of polymerization of 2.5 μM pyrene-labelled rabbit actin with 50 μM RH1 CTD peptide, without aldolase (control without addition 35, bovine serum albumin 34) (fluorescence units min^-1): 69

## PfMTRAP cytoplasmic tail domain peptide (residues 452-498)
[3]
  initial rate of polymerization of 2.5 μM pyrene-labelled rabbit actin with 50 μM MTRAP CTD peptide, without aldolase (control without addition 35, bovine serum albumin 34) (fluorescence units min^-1): 66
